Patent US11015206B2, “Compositions and methods comprising sequences having hydroxyphenylpyruvate dioxygenase (HPPD) activity” (PIONEER HI-BRED INTERNATIONAL, INC., priority 2014, dated 2021)
Changes are numbered by the printed parent chain. Numbers in names are those of the source.

B1: 206Q: single substitution P206Q in SEQ ID NO:2 (protein)
chain: MGPTPTATAAGAAVAAASAAEQAAFRLVGHRNFVRFNPRSDRFQTLAFHHVELWCADAASAAGRFSFALGVPLAARSDLSTGNSAHASLLLRSGSLSLLFTAPYAHGADAATAALPSFSAAAARRFAADHGLAVRAVALRVADAEDAFRASVAAGARPAFGPVDLGRGFRLAEVELYGDVVLRYVSYPDGAAGEPFLPGFEGVASQGAADYGLSRFDHIVGNVPELAPAAAYMAGFTGFHEFAEFTTEDVGTTESGLNSMALANNSENVLLPLNEPVHGTKRRSQIQTFLDHHGGPGVQHIALASDDVLRTLREMRARSAMGGFEFLPPPLSDYYDGVRRCAGDVLTEAQINECQELGVMVDRDDQGVLLQIFTKPVGDRPTFFLEIIQRIGCMEKDEKGQEYQKGGCGGFGKGNFGQLFKSIEDYEKSLEAKQAAAAATAQGS
modifications: Zea mays variant form created by artificial means.
B2: 158K: single substitution P158K in SEQ ID NO:2 (protein)
chain: B1 chain with P158K, Q206P
modifications: Zea mays variant form created by artificial means.
B3: 432K: single substitution A432K in SEQ ID NO:2 (protein)
chain: B1 chain with Q206P, A432K
modifications: Zea mays variant form created by artificial means.
B4: 385I: single substitution L385I in SEQ ID NO:2 (protein)
chain: B1 chain with Q206P, L385I
modifications: Zea mays variant form created by artificial means.
B5: 356R: single substitution E356R in SEQ ID NO:2 (protein)
chain: B1 chain with Q206P, E356R
modifications: Zea mays variant form created by artificial means.
B6: 214N: single substitution S214N in SEQ ID NO:2 (protein)
chain: B1 chain with Q206P, S214N
modifications: Zea mays variant form created by artificial means.

How the values were obtained:
Assay type in all cases: biochemical, Z. mays
[1] = system: 4-hydroxyphenylpyruvate dioxygenase (HPPD); experiment: HPPD activity coupled assay with HGD; substrate saturation kinetic parameters (kcat, KM); details: Table 6; for kcat: single substitutions in SEQ ID NO:2
Procedure: Wild type and shuffled variant genes were cloned into pVER7062, a modified version of pET24a(+)(Novagen), which places six histidine residues at the N-terminus of the expressed protein. Vectors were electroporated into E. coli host strain BL21(DE3). Cells were grown at 30 C in rich medium such as 2×YT containing the selection antibiotic, kanamycin. At a density of about 0.6 OD600, IPTG was added to 0.2 mM, the temperature was reduced to 16 C and growth continued for another 24 hrs. Cells were harvested by centrifugation and stored at −80 C. Cell pellets were lysed in BPER (Pierce) protein extraction reagent containing 0.2 mg/ml lysozyme, 1 mM dithiothreitol, protease inhibitor cocktail (Sigma, bacterial cocktail) and endonuclease. Insoluble cellular debris was removed by centrifugation. HPPD protein was purified from the soluble protein solution by affinity chromatography on the nickel form of nitrilotriacetic acid (Ni-NTA) resin (Qiagen). Protein concentrations were determined by the Bradford method, as supplied by Bio-Rad.
HPPD catalyzes the conversion of 4-hydroxyphenylpyruvate (HPP) to homogentisate (FIG. 17). […] However, the product of the ensuing reaction in tyrosine metabolism, maleylacetoacetate, absorbs strongly at 320 nm. Furthermore, the enzyme catalyzing that reaction is also a dioxygenase having similar mechanism and buffer requirements as HPPD, making homogentisate dioxygenase (HGD) an ideal partner in a coupled assay, as shown.
The HDG gene from Pseudomonas aeruginosa (Amaya (2004) Arch Biochem Biophys 421, 135-142) was cloned into pVER7062 and electroporated into E. coli strain BL21(DE3). The enzyme was produced by methods similar to those described for HPPD. The purified enzyme has a KM for homogentisate of 23 μM and a kcat of 100/sec, properties highly suited for instantly converting the homogentisate produced by HPPD to maleylacetoacetate.
HPPD activity was measured by placing an aliquot (e.g., 6 μl) of the substrate HPP at 50-fold the desired final concentration into the wells of a low UV-absorbing assay plate. Reactions were started by adding a mixture (e.g., 294 μl) containing 25 mM Hepes, pH 7, 2 mM ascorbate, 10 μM FeSO4, 1 to 100 μM HPP, 50 nM HGD and 5 to 240 nM HPPD. Absorbance at 320 nm was monitored continuously in a plate-reading spectrophotometer (Spectramax, Molecular Devices).
The catalytic performance of wild-type HPPD and variants generated by shuffling was assessed by determining the substrate saturation kinetic parameters. The Michaelis-Menten kinetics protocol of the Spectramax software was customized for HPP concentrations ranging from 3.33 μM to 100 μM. Reaction rates were measured as described above for each concentration of HPP. The software returns values of KM and Vmax using the Lineweaver-Burke transformation of the Michaelis-Menten equation.

[2] = system: 4-hydroxyphenylpyruvate dioxygenase (HPPD); experiment: ON rate ratio: HPPD reaction rate with vs without inhibitor in the 70 to 90 second interval; details: Table 5; tembotrione
Summary of the method: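 Indicator of inhibitor on-rate: reaction velocity in the 70 to 90 second window with 4 μM inhibitor divided by that without. Reactions contained 100 μM HPP and 60 or 120 nM HPPD; slower binding gives a larger ratio.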

[3] = system: 4-hydroxyphenylpyruvate dioxygenase (HPPD); experiment: OFF rate ratio: release of inhibitor from pre-formed enzyme-inhibitor complex; details: Table 5; tembotrione
Summary of the method: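 Inhibitor release from pre-formed complex (enzyme 7.2 μM, inhibitor 8 μM, 1 h RT) tracked as accelerating HPPD activity at 320 nm over 12 min, coupled via 50 nM HGD with 100 μM HPP at pH 7. OFF rate ratio: steady-state velocity relative to uninhibited initial velocity.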

[4] = system: 4-hydroxyphenylpyruvate dioxygenase (HPPD); experiment: Insensitivity parameter (ON × OFF) and trait fitness (ON × OFF × kcat/KM or × kcat); details: for ON × OFF × kcat, Value / ON × OFF × kcat, Fold vs wt / ON × OFF, fold vs wt / ON × OFF (parameters with tembotrione): Table 5, tembotrione; for ON × OFF × kcat, Fold vs wt / ON × OFF, fold vs wt: fold vs maize wild type HPPD; for ON × OFF (parameters with tembotrione): insensitivity parameter
Summary of the method: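 Trait fitness combines catalysis and insensitivity as kcat/KM × ON rate ratio × OFF rate ratio. The insensitivity parameter is the product of ON and OFF rate ratios, used in place of KD because the ON rate ratio is inverse.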

[5] = system: 4-hydroxyphenylpyruvate dioxygenase (HPPD); experiment: Estimate of kcat from initial rate at saturating hydroxyphenylpyruvate without inhibitor (ON rate ratio assay); details: Table 5; single substitutions in Round 7 variant 9070 (SEQ ID NO:2); estimate from initial rate at saturating hydroxyphenylpyruvate without inhibitor
Summary of the method: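 kcat was estimated from the initial reaction rate with known enzyme level (60 or 120 nM HPPD). Hydroxyphenylpyruvate was at a saturating 100 μM, with no inhibitor present.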

[6] = DKN (diketonitrile form of isoxaflutole)
[7] = DKN (isoxaflutole diketonitrile)

Molecule	Km [1] [µM]	kcat [1] [s⁻¹]	ON ratio (parameters with tembotrione) [2]	OFF ratio (parameters with tembotrione) [3]	Insensitivity parameter, ON × OFF [4, 6]	ON × OFF × kcat/km fold vs Round 7, variant 9070 [4, 7]	Insensitivity parameter, ON × OFF ([4]; Mesotrione, Table 6)	ON × OFF × kcat/km fold vs Round 7, variant 9070 ([4]; Sulco (sulcotrione))	Insensitivity parameter, ON × OFF ([4]; Sulcotrione)	ON × OFF × kcat, Value [4]	ON × OFF × kcat, Fold vs wt [4]	ON × OFF, fold vs wt [4]	ON × OFF (parameters with tembotrione) [4]	Insensitivity parameter, ON × OFF ([4]; Tembotrione)	ON × OFF × kcat/km fold vs Round 7, variant 9070 ([4]; Topra (topramezone))	Insensitivity parameter, ON × OFF ([4]; Topramezon)	ON × OFF × kcat/km fold vs Round 7, variant 9070 ([4]; meso (mesotrione))	ON × OFF × kcat/km fold vs Round 7, variant 9070 ([4]; tembo (tembotrione))	kcat [5] [s⁻¹]
B1	2.63	1.11	0.74	0.21	0.26	1.2	0.46	1.0	0.53	5.57	5.20	30.8	0.16	0.19	1.1	0.27	1.1	1.4	0.59
B2	2.49	0.785	0.77	0.27	0.38	1.0	0.54	0.9	0.63	10.44	9.76	40.6	0.21	0.29	1.1	0.37	1.0	1.3	0.84
B3	2.08	1.12	0.76	0.17	0.26	1.6	0.52	1.5	0.59	4.13	3.86	25.7	0.13	0.21	1.5	0.29	1.6	1.4	0.525
B4	2.29	0.768	0.75	0.27	0.41	1.2	0.56	1.1	0.70	5.55	5.18	39.5	0.20	0.28	1.2	0.38	1.1	1.3	0.458
B5	2.89	1.32	0.75	0.21	0.21	1.1	0.44	1.1	0.53	5.97	5.58	30.0	0.15	0.16	1.1	0.24	1.1	1.2	0.652
B6	3.62	1.41	0.76	0.19	0.33	1.4	0.48	1.1	0.59	5.04	4.71	27.9	0.14	0.25	1.2	0.32	1.1	1.3	0.59
